Laboratory results from the nanobody polyreactivity screen of Harvey et al. (2022).

assay: yeast display, Sf9 membrane polyspecificity reagent, FACS + sequencing; frameworks hold sequencing errors
In short: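 Using colony PCR, genes from sorted yeast display clones were amplified, then sequenced on MiSeq at 2 × 250 and filtered by CDR length. The clones had been stained with 10% biotinylated, detergent-solubilized Sf9 membrane reagent for 1 hour at 4 °C and sorted by FACS into low and high (top ~1%) gates on anti-HA and streptavidin fluorescence. Polyreactivity labels come from the gate of origin.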

Row | Sequence | polyreactivity (PSR sort gate)
1 | QVQLVESGGGLVQAGGSLRISCAASGFIFRYYTMGWYRQAPGKERELVATITSGGSTYYADSVKGRFTISRDNAKNTVYLQMNSLKPEDTAVYYCAKVRDVLWRFNYWGQGTEVTVSS | high polyreactivity
2 | QVQLVESGGGLVQAGGSLRISCAASGFIFTRYVMGWYSQAPGKERELVAGISTRGARTYYADSVKGRFTISRDNAKNTVYLQMNSLKPEDTAVYYCAKDYYKHYYWGQGTQVTVSS | high polyreactivity
3 | QVQLVESGGGLVQAGGSLRISCAASGFIYTRYTMGWYRQAPGKERELVAVINSSGGSTYYADSVKGRFTISRDNAKNTVYLQMNSLKPEDTAVYYCNALSRYRIWSYGYWGPGTQVTVSS | high polyreactivity
4 | QVQLVESGGGLVQAGGSLRISCAASGFTFFSNAMGWYRKAPGKERELVAAITSSGGSTYADTVKGRFTISRDNAKNTVYLQMNRLKPEDTAVYYCAADAQAPPGGFKEYDYWGQGTQVTVSS | low polyreactivity
5 | QVQLVESGGGLVQAGGSLRISCAASGFTFGPYDMGWYRQAPGKERELVAAITDSSGSTHYADSVKGRFTISRDNAKNTVYFQMNSLKPEDTAVYTCAADDSSRTTYYYWGQGTEVTVSS | low polyreactivity
6 | QVQLVESGGGLVQAGGSLRISCAASGFTFGRYAMGWYRQAPGKEREFVASISARGGNTFYADSVKGRFTISRDNAKNTVYLQMTSLKPEDTAVYYCNALTYFKRSEYYWGQGTQVTVSS | high polyreactivity
7 | QVQLVESGGGLVQAGGSLRISCAASGFTFSLNGMGWYRQAPGKEREMVAAIRSGGSTNYADSVKGRFTISLDNAKYTVYIQMNSLKPEDTAVYYCATDIHSVHNNRDKHDYDYLGQGTQVTVSS | low polyreactivity
8 | QVQLVESGGGLVQAGGSLRISCAASGFTFYIYAMGWYRQAPGKERELVAAISARGGSTYYADSVKGRFTISRDNAKNTVYLQMNSLKPEDTAVYYCNALYNYAEIYGRGYWGLGTQVTVSS | high polyreactivity
9 | QVQLVESGGGLVQAGGSLRISCAASGFTLRVNAMGWYRQAPGKERELVAAISDSGGDTYYSNSVKGRFTISRDNAKNTVYLQMNSLKPEDTAVYYCAADDGSENDYWGQGTQVTVSS | low polyreactivity
10 | QVQLVESGGGLVQAGGSLRISCAASGGIFFQNAMGWYRQAPGKERELVAAISWSAGSTYYADSVKGRFTISRDNAKNSVDLQMNRQKPEDTAVDSCAGRVGCGRAIDLYYYWGQGTQVTVSS | low polyreactivity
11 | QVQLVESGGGLVQAGGSLRISCAASGGTFQPYAMGWYRQAPGKERELVAAITSSDGSTYYADSVKWRFTISRDNAKNTVYLQMNSLKPEDTAVYYCNATIASGYGDRYVDTSHDYWGQGTQVTVSS | low polyreactivity
12 | QVQLVESGGGLVQAGGSLRISCAASGGTFRPNAKGWSRQAPGKERELVAAITRSGGSTYYADSVKGRFTISRDNAKNTVYLQRNSLKPEETAVYYCARDLREWGQGTQVTVSS | low polyreactivity
13 | QVQLVESGGGLVQAGGSLRISCAASGIIFKGYAMGWYRQAPGKERELVAAISHNADSTYADSVKGRFTISRDNAKNTVYLQMNSLNPEDTAVYYCNADTPLRSDYWGQGTQVTVSS | low polyreactivity
14 | QVQLVESGGGLVQAGGSLRISCAASGIIFRLNAMGWYRQAPGKERELVAAIRRRGGSTYYADSVKGRFTISRDNAKNTVYLQMNSLKPEDTAVYYCAKDPHGSDFGYWGQGTQVTVSS | low polyreactivity
15 | QVQLVESGGGLVQAGGSLRISCAASGIIFVWNAIGWYRQAPGKERELVADISWSSGRTYYADSVKGRFTISRDNAKNTVYLQMNSLIPEDTAVYYCATDDFWNVIFYAYYPEFDYWGQGTQVTVSS | low polyreactivity
16 | QVQLVESGGGLVQAGGSLRISCAASGITASNAMGWNRQAPGKERELVAAISCRGGRTYYADSVKGRFTISRDNAKNTVYLQMNSLKPEDTAVYYCAKRYYTAQSRSDYWGQGTQVTVSS | high polyreactivity
17 | QVQLVESGGGLVQAGGSLRISCAASGITFQSNAMGWYRQAPGTERELVAGITGNGGSTYYADSVKGRFTISRDNAKNTVYLQMNSLKPEDTAVYYCNIGRRKRTRYDYWGQGTQGTVSS | high polyreactivity
18 | QVQLVESGGGLVQAGGSLRISCAASGITLAKNAMGWYRQAPGKETELVAAISRRGGNTYYADSVKGRFTISRDNAKNTVYLQMNSLKPEDTAVYYCAVDYRSTGLGYWGQGTQVTVSS | high polyreactivity
19 | QVQLVESGGGLVQAGGSLRISCAASGLIFRHNAMGWYRQAPGKERELVAAITGSGSTYYADSEKGRFTISRDNAKNTVYLQMNSLKPEDTAVYYGNADYPGGLQEEDYWGQGTQVTVSS | low polyreactivity
20 | QVQLVESGGGLVQAGGSLRISCAASGLTFNAYAMGWYRQAPGKERELLADITTSDGSTFYADSVKGRFTISRDKATNTVYLQMNSLKPEDTAVYYCNADAYGWYSGPWFKWLLWYDYWGQGTQVTVSS | low polyreactivity
21 | QVQLVESGGGLVQAGGSLRISCAASGLTFRRNAMGGYRQAPGKERELFAAITASGGSTYYADSVTGRFTISRDNAKNTVFLQMNSLKPEETAVYYSAAVNYRWYSRNYDHYYWGQGTQVTVSS | high polyreactivity

Row | Sequence | polyreactivity (PSR sort gate)
22 | QVQLVESGGGLVQAGGSLRISCAASGLTFVYYTMGWYSQAPGKEREFVAGIDWSGGSTYYADSVKLRFTISRDNAKNTVYLQMNSLKPEDTAVYYCAAAVYYQYGVYRHDYWGQGTQVTVSS | low polyreactivity
23 | QVQLVESGGGLVQAGGSLRISCAASGLTIVPNAMGWYRQAPGKERELVAAISNNGGRTYYADSVKGRFTISRDNAKNTVYLQMNSLKPEDTAVYYCAKYLSPGERHSYDYWGQGTQVTVSS | high polyreactivity
24 | QVQLVESGGGLVQAGGSLRISCAASGNICSWYAMGWSRQAPGKERELVAAIRWSSGSTYYADSVKWRFTISRDNAKNTVYLQMNSMKPEDTAVYYCAAVIKGWGQGTQVTVSS | high polyreactivity
25 | QVQLVESGGGLVQAGGSLRISCAASGNTFDYYTMGWYRQAPGKERDLVASIDWSTTTTYYADSVKGRFTISRDNAKTTVYLQMKSLKPEDTAVYYCNTVYDFYHLGLYSGFRYHYWGQGTQVTVSS | low polyreactivity
26 | QVQLVESGGGLVQAGGSLRISCAASGRICAYNAMGWYRQAPGKERELVAAITWSGGTTYYADSVKGRCTISRDNAKNSVYFQRNSLKPEVTAVYYCAATVGAASRYYYWAQGTQVTVSS | high polyreactivity
27 | QVQLVESGGGLVQAGGSLRISCAASGRIFDLYAMGWYRQPPGKERELVASISSDGSTNYADSVKGRFTISRDNAKNTVYLQMNSLKPEDTAVYYCATRKGRRYGYNYWGQGTQVTVSS | high polyreactivity
28 | QVQLVESGGGLVQAGGSLRISCAASGRIFDRYVLGWYRQAPGKERELVAAISSGGSTYYADSVKGRFTISRDNAKNTVYLQMNSLKPEDTAVYYCAADRRSKYDYWGQGTQVTVSS | low polyreactivity
29 | QVQLVESGGGLVQAGGSLRISCAASGRIFDYNVMGWYRQAPGKERELVAGISSGGSTYYADSVKGRFTISRDNAKNTVYLQMNSLKPEDTAVYYCAARGRPYRGYGYWGQGTQVTVSS | high polyreactivity
30 | QVQLVESGGGLVQAGGSLRISCAASGRIFGENAMGWYRQAPGKERELVAAIRFSSGSTYYADSVKGRFTISRDNAKNTVYLQMNSLKPEDTAVYYCNADGWYALYEWLAVSGYYWGQGTQVTVSS | low polyreactivity
31 | QVQLVESGGGLVQAGGSLRISCAASGRIFLGNAMGWYRQAPGKERELVAAITNGGGSTYYADSVKGRFTISRDNAKNTVYLQMNSLKPEDTAVYYCARGYKKSVQRFEYWGQGTQVTVSS | high polyreactivity
32 | QVQLVESGGGLVQAGGSLRISCAASGRIFPVNAMGWYRQAPGKERELVARISWRGGTYYADSVKGRFTISRDNAKNTVYLQMNSLKPEDTAFYYCAATLASTSYWYHYGYWGQGTQVTVSS | high polyreactivity
33 | QVQLVESGGGLVQAGGSLRISCAASGRIFRAYAMGWYRQAPGKERELVADIRSTGSTNYADSVKGRFTISRDNAKNTVYLQMNSLNPEDTAGYYCAARWRSLRFGSGFEYWGQGTQVTVSS | high polyreactivity
34 | QVQLVESGGGLVQAGGSLRISCAASGRIFTRNAMGWYTQAPGNETELVAAITSGGSTNYADSVKGRFTISRDNAKNTVYLQMNSLKPEDTAVYFCYAVYYPYRIWGRVRPSYGYWGQGTQVTVSS | high polyreactivity
35 | QVQLVESGGGLVQAGGSLRISCAASGRIFYFNTMGWYRQAPGKERELVAAISLSGGRTYYADSVKGRFTISRDNAKNTVYLQMNSLKREDSAVYYCNAVARSRSRDTSKGDYWGQGTQVTVSS | high polyreactivity
36 | QVQLVESGGGLVQAGGSLRISCAASGRIFYGNAMGWYRQAPGKERELVAAIRRSGGSTYYADSVKGRFTISRDNAKNTVYLQMNSLKPEDTAVYYCNVDSGEFDYVWVYTYDYWGQGTQVTVSS | low polyreactivity
37 | QVQLVESGGGLVQAGGSLRISCAASGRIFYYNAMGWYRQAPGKERELVAAITSGGSTNYADSVKGRFTISRDNAKNTVYLQMNSLKPEDTAVYYCAADYYYYVAGVHYDYWGQGTQVTVSS | low polyreactivity
38 | QVQLVESGGGLVQAGGSLRISCAASGRTFARNSMGWYRQAPGKERELVATITIGGRTYYADSVKGRFTISRDNAMNTVYLQMNSLKPEDTAVYYCAKRISGYRGDYWGQGTQVTVSS | high polyreactivity
39 | QVQLVESGGGLVQAGGSLRISCAASGRTFDSYAMGWYIQAPGKEREFVAAISYSGTSTYYADSVKGRFTISRDYAKNTVYLQMNSLIPEDTAVYYCAKEFIFRLWGQGTQVTVSS | low polyreactivity
40 | QVQLVESGGGLVQAGGSLRISCAASGRTFHYYDMGWYRQAPGKERELVAAISSTAGSTYYADSVKGRFTISRDNAQNTVHLQMNSLKPEDTAVYYCAARQFGYYHVRNEYWGQGTQVTVSS | high polyreactivity
41 | QVQLVESGGGLVQAGGSLRISCAASGRTFKSYAMGWYRQAPGKERELVAAISSSGGRTFYADSVKGRFTISRDNAKNTVYLQMNSLKPEDTAVYYCNARYCYRYGGYKPVGGYYWGQGTQVTVSS | high polyreactivity
